# Data taken from patent US9724426B2, “Agents, uses and methods” (AFFINICON APS, priority 2009, dated 2017).
# B1: Mac2-158: murine anti-human CD163 mAb binding SRCR domain 1; VH SEQ ID NO:20, VL SEQ ID NO:21; IQ Products (antibody, V domains shown)
# VH: DVQLQESGPGLVKPSQSLSLTCTVTGYSITSDYAWNWIRQFPGNKLEWMGYITYSGITNYNPSLKSQISITRDTSKNQFFLQLNSVTTEDTATYYCVSGTYYFDYWGQGTTLTVSS
# VL: SVVMTQTPKSLLISIGDRVTITCKASQSVSSDVAWFQQKPGQSPKPLIYYASNRYTGVPDRFTGSGYGTDFTFTISSVQAEDLAVYFCGQDYTSPRTFGGGTKLEIKRA
# modifications: Mac2-158 VH sequence; Mac2-158 VL sequence
# notes: IQ Products
# Experiments:
# [1] = molecular target: recombinant CD163 immobilized on a Biacore chip (Homo sapiens, UniProt Q86VB7); experiment: Surface plasmon resonance (Biacore) analysis of mAb binding to immobilized CD163; settings: 5 μg/ml
# Sequence of recombinant CD163 immobilized on a Biacore chip (Q86VB7 42-1156): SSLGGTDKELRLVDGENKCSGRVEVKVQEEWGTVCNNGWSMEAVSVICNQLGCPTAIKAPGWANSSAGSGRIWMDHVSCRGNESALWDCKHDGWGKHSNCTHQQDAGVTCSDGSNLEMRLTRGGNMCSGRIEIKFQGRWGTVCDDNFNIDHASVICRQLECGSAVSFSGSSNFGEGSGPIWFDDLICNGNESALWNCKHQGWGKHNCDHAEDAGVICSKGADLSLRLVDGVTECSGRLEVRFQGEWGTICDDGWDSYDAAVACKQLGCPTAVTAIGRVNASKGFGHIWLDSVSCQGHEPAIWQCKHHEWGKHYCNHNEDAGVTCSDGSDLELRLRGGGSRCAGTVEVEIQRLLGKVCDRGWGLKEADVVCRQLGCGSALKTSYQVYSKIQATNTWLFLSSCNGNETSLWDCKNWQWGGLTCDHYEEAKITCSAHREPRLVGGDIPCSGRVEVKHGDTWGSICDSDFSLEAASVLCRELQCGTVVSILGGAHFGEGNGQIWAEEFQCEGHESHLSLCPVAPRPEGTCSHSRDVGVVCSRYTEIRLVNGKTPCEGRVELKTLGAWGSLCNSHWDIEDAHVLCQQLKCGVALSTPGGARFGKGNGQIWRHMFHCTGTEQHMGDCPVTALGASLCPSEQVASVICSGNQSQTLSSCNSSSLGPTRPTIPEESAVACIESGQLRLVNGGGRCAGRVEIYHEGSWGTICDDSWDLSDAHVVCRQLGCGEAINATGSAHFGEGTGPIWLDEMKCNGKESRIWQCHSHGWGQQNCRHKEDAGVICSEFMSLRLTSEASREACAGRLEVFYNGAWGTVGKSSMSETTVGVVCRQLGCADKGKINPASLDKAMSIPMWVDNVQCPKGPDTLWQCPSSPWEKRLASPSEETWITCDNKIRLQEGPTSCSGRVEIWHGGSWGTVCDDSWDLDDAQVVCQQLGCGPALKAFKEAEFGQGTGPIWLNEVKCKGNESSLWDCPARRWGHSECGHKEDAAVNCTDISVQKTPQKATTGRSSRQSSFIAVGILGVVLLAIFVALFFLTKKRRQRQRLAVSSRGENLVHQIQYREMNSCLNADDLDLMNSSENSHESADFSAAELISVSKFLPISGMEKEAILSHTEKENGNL
# Description: SPR analysis of the binding of mAbs to CD163 was carried out on a Biacore 2000 instrument (Biacore, Uppsala, Sweden). The Biacore sensor chips (type CM5) were activated with a 1:1 mixture of 0.2 M N-ethyl-N′-(3-dimethylaminopropyl) carbodiimide and 0.05 M N-hydroxysuccimide in water. Purified recombinant CD163 were immobilized in 10 mM sodium acetate, pH 4.0, and the remaining binding sites were blocked with 1 M ethanolamine, pH 8.5. The SPR signal generated from immobilized recombinant CD163 proteins corresponded to 40-70 fmol of protein/mm^2. Sensorgrams were generated using mAb concentrations ranging from 5-100 nM. The flow cells were regenerated with 1.6 M glycine-HCl, pH 3. The running buffer used for the experiment was either CaHBS 10 mM Hepes, 150 mM NaCl, 3.0 mM CaCl2, 1.0 mM EGTA, and 0.005% Tween 20, pH 7.4. or 10 mM Hepes, 150 mM NaCl, 3.0 mM EDTA, and 0.005% Tween 20, pH 7.4, mAb samples were dissolved in the same buffer as the running buffer used. All binding data were analyzed using the Biamolecular Interaction Analysis evaluation program version 3.1.
# SPR analysis of the binding of mAbs to CD163 was carried out on a Biacore 2000 instrument (Biacore, Uppsala, Sweden). […] All binding data were analyzed using the Biamolecular Interaction Analysis evaluation program version 3.1.
# [2] = molecular target: T1, CD163 receptor on surface of human macrophages (Homo sapiens, UniProt Q86VB7); experiment: Binding and uptake of fluorescently labeled CD163 antibodies in monocyte-derived macrophages; format: cell-based; settings: 0 min; macrophages stimulated with 200 nM dexamethasone
# T1 construct: endogenous in cells; host or cells: human peripheral blood monocytes, monocyte-derived macrophages, blood dendritic cells
# T1 sequence (Q86VB7 42-1156): as above
# Description: Monocytes were isolated from PBMC by negative selection using magnetic beads from Dynal (Dynabeads® MyPure™ Monocyte Kit 2; Invitrogen A/S, Taastrup, Denmark) according to instructions provided by the manufacturer. Monocyte preparations were more than 95% (CD14^+) pure determined by flow cytometry. The isolated cells were washed twice with phosphate-buffered saline. Monocyte-derived macrophages (MDMs) were prepared by cell culture of monocytes (approximately 1×10^7 cells) for 4 days in 5% CO2 and 37° C. in RPMI 1640 media (RPMI 1640+25 mM HEPES+I-glutamine) (Invitrogen Corporation, Carlsbad, Calif., USA) with 20% FCS containing 100 ng/ml of M-CSF. MDMs were then detached from the flask by incubation with cell dissociation buffer (Invitrogen A/S, Taastrup, Denmark) for 30 minutes at 40 °C, then flushed, and scraped. […]
# MDMs or CHO cells were washed with 4° C. cold D-PBS, pH 7.4, containing 1% BSA in Lab-Tek™ Chamber Slides (Thermo Fisher Scientific, Roskilde, Denmark). […] Fluorescence was visualized using a Zeiss Axiovert 200M microscope (Carl Zeiss GmbH, Jena, Germany) with an ×100 oil-immersion objective. […] Alternatively, immunostained cells were analyzed by confocal immunofluorescence microscopy using a Zeiss LSM-510 confocal microscope (Carl Zeiss GmbH, Jena, Germany). […]
molecule,measurement,setting,value
B1,"affinity for human CD163, KN2/NRY compared with Mac2-158",[1],Virtually similar affinities
same,cell surface staining (immunofluorescence),[2],pronounced cell surface staining
